In paper PMC6363440 (The Journal of Cell Biology, 2019):

Target: Flag-53BP1 (human, UniProt Q12888 1-1972)
Experiment: pull-down

Sequence of Flag-53BP1 (Q12888 whole entry): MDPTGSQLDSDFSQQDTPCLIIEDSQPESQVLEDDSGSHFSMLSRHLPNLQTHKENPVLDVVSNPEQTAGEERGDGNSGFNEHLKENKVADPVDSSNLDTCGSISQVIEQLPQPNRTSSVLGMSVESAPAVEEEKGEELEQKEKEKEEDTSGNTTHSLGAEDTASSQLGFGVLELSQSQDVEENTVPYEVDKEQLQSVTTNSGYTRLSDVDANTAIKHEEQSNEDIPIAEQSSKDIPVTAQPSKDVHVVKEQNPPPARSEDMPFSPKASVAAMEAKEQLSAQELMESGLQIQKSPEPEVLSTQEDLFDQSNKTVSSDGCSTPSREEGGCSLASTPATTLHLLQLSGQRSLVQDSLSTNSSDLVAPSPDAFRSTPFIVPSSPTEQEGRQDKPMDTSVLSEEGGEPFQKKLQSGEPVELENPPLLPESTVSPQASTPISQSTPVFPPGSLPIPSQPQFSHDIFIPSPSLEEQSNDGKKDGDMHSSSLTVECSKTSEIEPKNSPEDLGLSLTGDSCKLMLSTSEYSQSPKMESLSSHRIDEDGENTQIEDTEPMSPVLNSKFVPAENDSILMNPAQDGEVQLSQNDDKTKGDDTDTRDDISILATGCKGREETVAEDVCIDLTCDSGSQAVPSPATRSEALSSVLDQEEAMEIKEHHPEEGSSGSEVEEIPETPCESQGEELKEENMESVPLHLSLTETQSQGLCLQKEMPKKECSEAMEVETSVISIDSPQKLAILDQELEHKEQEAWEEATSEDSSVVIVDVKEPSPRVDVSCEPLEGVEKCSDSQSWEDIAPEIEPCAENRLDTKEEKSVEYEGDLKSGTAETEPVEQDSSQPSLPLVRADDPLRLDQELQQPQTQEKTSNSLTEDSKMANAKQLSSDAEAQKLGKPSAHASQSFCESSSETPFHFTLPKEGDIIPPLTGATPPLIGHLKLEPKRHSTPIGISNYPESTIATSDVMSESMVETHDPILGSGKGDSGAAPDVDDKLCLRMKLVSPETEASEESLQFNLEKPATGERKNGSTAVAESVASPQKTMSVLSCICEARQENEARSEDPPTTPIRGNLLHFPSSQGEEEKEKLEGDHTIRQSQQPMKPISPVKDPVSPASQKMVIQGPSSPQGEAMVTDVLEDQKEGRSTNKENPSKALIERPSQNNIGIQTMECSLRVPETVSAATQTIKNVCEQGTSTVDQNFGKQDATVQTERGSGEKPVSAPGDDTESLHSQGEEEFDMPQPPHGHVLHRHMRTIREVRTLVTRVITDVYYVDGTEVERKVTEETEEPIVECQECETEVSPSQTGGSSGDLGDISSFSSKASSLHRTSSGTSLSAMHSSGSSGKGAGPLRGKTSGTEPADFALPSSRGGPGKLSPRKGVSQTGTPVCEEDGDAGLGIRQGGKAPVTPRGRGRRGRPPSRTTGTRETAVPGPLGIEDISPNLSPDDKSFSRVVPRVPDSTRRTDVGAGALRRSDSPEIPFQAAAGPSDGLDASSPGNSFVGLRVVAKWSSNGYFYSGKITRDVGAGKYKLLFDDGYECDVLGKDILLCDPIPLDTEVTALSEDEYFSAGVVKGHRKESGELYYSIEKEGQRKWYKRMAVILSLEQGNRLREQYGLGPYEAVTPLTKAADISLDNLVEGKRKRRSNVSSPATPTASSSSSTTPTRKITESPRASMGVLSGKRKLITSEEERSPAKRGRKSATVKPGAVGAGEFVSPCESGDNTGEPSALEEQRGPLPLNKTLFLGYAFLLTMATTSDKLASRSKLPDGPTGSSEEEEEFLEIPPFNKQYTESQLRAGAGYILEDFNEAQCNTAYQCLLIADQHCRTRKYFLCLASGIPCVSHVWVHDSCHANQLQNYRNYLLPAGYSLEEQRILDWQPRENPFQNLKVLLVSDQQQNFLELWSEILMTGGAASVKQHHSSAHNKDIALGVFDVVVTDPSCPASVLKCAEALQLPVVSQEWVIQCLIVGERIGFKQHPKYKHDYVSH

B1: GST-TPX2 (natural protein)
chain: MSQVKSSYSYDAPSDFINFSSLDDEGDTQNIDSWFEEKANLENKLLGKNGTGGLFQGKTPLRKANLQQAIVTPLKPVDNTYYKEAEKENLVEQSIPSNACSSLEVEAAISRKTPAQPQRRSLRLSAQKDLEQKEKHHVKMKAKRCATPVIIDEILPSKKMKVSNNKKKPEEEGSAHQDTAEKNASSPEKAKGRHTVPCMPPAKQKFLKSTEEQELEKSMKMQQEVVEMRKKNEEFKKLALAGIGQPVKKSVSQVTKSVDFHFRTDERIKQHPKNQEEYKEVNFTSELRKHPSSPARVTKGCTIVKPFNLSQGKKRTFDETVSTYVPLAQQVEDFHKRTPNRYHLRSKKDDINLLPSKSSVTKICRDPQTPVLQTKHRARAVTCKSTAELEAEELEKLQQYKFKARELDPRILEGGPILPKKPPVKPPTEPIGFDLEIEKRIQERESKKKTEDEHFEFHSRPCPTKILEDVVGVPEKKVLPITVPKSPAFALKNRIRMPTKEDEEEDEPVVIKAQPVPHYGVPFKPQIPEARTVEICPFSFDSRDKERQLQKEKKIKELQKGEVPKFKALPLPHFDTINLPEKKVKNVTQIEPFCLETDRRGALKAQTWKHQLEEELRQQKEAACFKARPNTVISQEPFVPKKEKKSVAEGLSGSLVQEPFQLATEKRAKERQELEKRMAEVEAQKAQQLEEARLQEEEQKKEELARLRRELVHKANPIRKYQGLEIKSSDQPLTVPVSPKFSTRFHC
Question: Does B1 bind?
Answer: binds
